Kd and stoichiometry N data for one substance are collected here from publication doi:10.1101/2023.07.03.547386.

The term Kd denotes a measure of binding affinity in units of concentration. As a reminder, the stoichiometry N is a count of units in the complex or per binding partner.

The test concerns the target ATG8CL (recombinant, purified) (potato). The test is described as follows: ITC.

Chain of ATG8CL (recombinant, purified) (potato) (M1C146 whole entry): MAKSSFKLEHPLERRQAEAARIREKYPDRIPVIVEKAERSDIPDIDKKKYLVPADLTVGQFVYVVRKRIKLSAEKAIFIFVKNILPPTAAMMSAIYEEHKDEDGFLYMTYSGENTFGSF

As to Rab3GAPL AIM peptide (Rab3GAPL-AIMp), the dissociation constant (Kd) was determined as 962 nM and the stoichiometry N stood at 1.03.
